Measurements as given in publication PMC2063705 (The Journal of Cell Biology, 2006).
Where a chain is given by its changes, count along the chain named. Names and notes keep the numbering of the source. Values belong to the binder of their own block, whether it stands above or below them.

Biological target: microtubules polymerized from purified tubulin, stabilized with paclitaxel (UniProt Q6B856 1-445)
Assay: co-sedimentation

- Kd: 1100 ± 200 nM
B1: wild-type p150^Glued NH2-terminal residues 1–333 (domain or fragment, human, UniProt Q14203-1 1-333, looked up)
chain: MAQSKRHVYSRTPSGSRMSAEASARPLRVGSRVEVIGKGHRGTVAYVGATLFATGKWVGVILDEAKGKNDGTVQGRKYFTCDEGHGIFVRQSQIQVFEDGADTTSPETPDSSASKVLKREGTDTTAKTSKLRGLKPKKAPTARKTTTRRPKPTRPASTGVAGASSSLGPSGSASAGELSSSEPSTPAQTPLAAPIIPTPVLTSPGAVPPLPSPSKEEEGLRAQVRDLEEKLETLRLKRAEDKAKLKELEKHKIQLEQVQEWKSKMQEQQADLQRRLKEARKEAKEALEAKERYMEEMADTADAIEMATLDKEMAEERAESLQQEVEALKERVD
modifications: [35S]methionine label (microtubule binding assay)

- Kd: 2600 ± 500 nM
B2: G59S p150^Glued NH2-terminal residues 1–333 (domain or fragment, human, UniProt Q14203-1 1-333, looked up)
chain: B1 chain with G59S
modifications: [35S]methionine label (microtubule binding assay)
